Reference: paper doi:10.1101/466946 (bioRxiv, 2018)

Biological target: recombinant full-length CIN85 (human, UniProt Q96B97 1-665)
Experiment: SPR

recombinant full-length CIN85, sequence (Q96B97 whole entry): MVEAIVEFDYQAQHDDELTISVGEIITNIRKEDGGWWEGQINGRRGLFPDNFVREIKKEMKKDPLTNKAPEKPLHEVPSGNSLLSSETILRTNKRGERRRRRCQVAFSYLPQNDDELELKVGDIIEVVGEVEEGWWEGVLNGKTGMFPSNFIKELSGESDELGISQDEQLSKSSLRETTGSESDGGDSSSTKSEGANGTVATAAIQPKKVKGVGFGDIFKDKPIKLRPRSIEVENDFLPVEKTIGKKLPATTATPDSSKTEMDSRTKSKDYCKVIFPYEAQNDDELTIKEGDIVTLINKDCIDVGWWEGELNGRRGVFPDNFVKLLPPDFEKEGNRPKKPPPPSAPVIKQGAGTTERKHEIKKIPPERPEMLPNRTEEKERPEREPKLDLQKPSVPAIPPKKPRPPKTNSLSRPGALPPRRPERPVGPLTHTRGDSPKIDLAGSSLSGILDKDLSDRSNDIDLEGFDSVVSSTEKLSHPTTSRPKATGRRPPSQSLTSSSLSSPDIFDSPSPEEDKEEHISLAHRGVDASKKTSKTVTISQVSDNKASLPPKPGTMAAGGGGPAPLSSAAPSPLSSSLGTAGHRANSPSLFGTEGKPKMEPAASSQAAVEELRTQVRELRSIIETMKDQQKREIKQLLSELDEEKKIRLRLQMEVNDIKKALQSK

Kd: 28.5 nM
B1: recombinant PHD2 (enzyme, human, UniProt Q9GZT9 1-426, looked up)
chain: MANDSGGPGGPSPSERDRQYCELCGKMENLLRCSRCRSSFYCCKEHQRQDWKKHKLVCQGSEGALGHGVGPHQHSGPAPPAAVPPPRAGAREPRKAAARRDNASGDAAKGKVKAKPPADPAAAASPCRAAAGGQGSAVAAEAEPGKEEPPARSSLFQEKANLYPPSNTPGDALSPGGGLRPNGQTKPLPALKLALEYIVPCMNKHGICVVDDFLGKETGQQIGDEVRALHDTGKFTDGQLVSQKSDSSKDIRGDKITWIEGKEPGCETIGLLMSSMDDLIRHCNGKLGSYKINGRTKAMVACYPGNGTGYVRHVDNPNGDGRCVTCIYYLNKDWDAKVSGGILRIFPEGKAQFADIEPKFDRLLFFWSDRRNPHEVQPAYATRYAITVWYFDADERARAKVKYLTGEKGVRVELNKPSDSVGKDVF
